Laboratory results from the supplement of paper PMC9170038.

System: K4 kissing-loop RNA reporter
Test: apparent KD of K4 kissing-loop reporter; higher = weaker reporter binding
Conditions: Eterna round: R107
Procedure: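 RNA-MaP round R107: designed RNA switches with theophylline, tryptophan, arginine or FMN aptamers are transcribed on-chip within common flanks. They are titrated with a labelled K4 kissing-loop RNA reporter in RNA-MaP buffer (100 mM Tris pH 7.5, 80 mM KCl, 4 mM MgCl2), without ligand or with the indicated ligand. Median apparent KD per design.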

[1] = input ligand: theophylline 20 uM
[2] = input ligand: tryptophan 2.4 mM
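Also: bound reporter read as fluorescence of individual clusters on recovered sequencing chips by microscopy, with normalized cluster intensities fitted with a binding model.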

| Sequence | apparent KD of K4 kissing-loop reporter (input ligand: FMN 200 uM) [nM] | apparent KD of K4 kissing-loop reporter (input ligand: arginine 13.2 mM) [nM] | apparent KD of K4 kissing-loop reporter (input ligand: none) [nM] | apparent KD of K4 kissing-loop reporter [1] [nM] | apparent KD of K4 kissing-loop reporter [2] [nM] |
| --- | --- | --- | --- | --- | --- |
| GGAUAGGAUAGAGGAUAUGGUAUAUGCAAGAAUAACUUGUCAUGUAAAUCCAUGAGGAGUGAUGUUCCAGAAGGCUGUCCUAUCG [MatMod 10 - Jieux - Exclusion - FMN B] | 646 | 324 | 480 | 519 | 379 |
| GGAUCUUCCAGUGAUGUUGGUUAAUAUAUCAAGGAUAUGACGAAAGUCAGAAGGUGAAAGACUGGACAAAGUCCAGUCGGAUCCA [KL-SSFMN-A19] | 444 | 573 | 599 | 444 | 430 |
| GGAUGGUAGGCGGCCGCCACUAAAACUGAACACAUACAAGCCAGUGAUGUUGGUAUGAUGGAGUAUAGGACCGGGCCUAGAUAGA [Exclusion - Tryptophan B (Freestyle 4)] | 452 | 367 | 472 | 420 | 421 |
| GGCACUUUUGCUUGGAACCGUCAAGCUCGAUAGGAUAUGCCGAAAGGCAGAAGGAUUGACCUACAGAGUGAUGUUCUGCGUGCCU | 791 | 378 | 830 | 288 | 408 |
| GGCAGUGAUGUUGCCAGUGGCAGAUGUGAAGGAGCGCGGUGAGACGCAGGUAGGUCGCACAUUGAAAUUGCUGUCACUAAAAUGC [#02 K4 Arginine A Exclusion] | 294 | 300 | 273 | 314 | 215 |
| GGCAGUGAUGUUGCCUUCGCAAUGCAUGCAGAGGAUAUUCGUUUGGGAAGAAGGCUGCAGCGUUCUCUCGAGUGAUGUUCGGGUG [Same State FMN A GF 19] | 130 | 168 | 195 | 181 | 177 |
| GGCGGCCGCGCGAAAGCGCGGCCGGCCGAUACCAGCGCGCCGGCGCGCCCUUGGCAGCGGCGCCGAGUGAUGUUCGGCCUGCCGU [#2 Same State - Theophylline A Attempt #12 (HarryS)] | 144 | 101 | 112 | 134 | 125 |
| GGCUCCUACGCAGGAUAUAGUAGCCGAGAGUGAUGUUCUACGGCGUUUGCCGAUUUAGUCACAGAUCUAGAAGGGUGUAGGAGCC [XFMN-B PiClone] | 1040 | 660 | 1130 | 756 | 1000 |
| GGCUUGCUAGUGAUGUUAGCAUUUUCUGAAGGAGCGCGUGAAAACGCAGGUAGGUCGCAGAACCUUGCCAACUAUUUUAGUUGCC [Ex Arginine A K4 27] | 101 | 113 | 94.3 | 97.3 | 82.4 |
| GGGAGGAGUGGUGUUGAUUAAGAAGCGGAAGGAGCGCCGAAGAAGGCAGGUAGGUCGCCGGAAUAUAGUGAUGUUAUAUAGAGGG [ExArg.E] | 529 | 323 | 230 | 406 | 252 |
| GGGAGUAGUGCGGCCGCCACUGUGAAAGAAGAAGAAUAUAGUGAUGUUAUAUAGGAAAGGAAGAAUAGGACCGGGCAUUAGAUUU [SSTRyptB.K] | 213 | 226 | 260 | 235 | 183 |
| GGGUAUUACGGAGGAUAUGCACUGAGGAGGAGAAUAUAGUGAUGUUAUAUAAGAGGAAGGAGAAGAGUAGAAGGCCGUGGUAUUG [SSFMNB.H] | 247 | 217 | 280 | 277 | 190 |
| GGGUGUAGUGCGGCCGCCACUGUGAUAGUAGAAGAGUAUAGUGAUGUUAUAUAGGAUUAAUAGAAUAGGACCGGGCAUUAGACUU [#24 K4 Tryptophan B Same State] | 348 | 340 | 368 | 395 | 209 |
| GGUAGCAUGGCGGCCGCCACUACUGACAGCUGUCUGUUCUGGGUACCAGGGAGUGAUGUUCCCGGUAGGACCGGGCCAUGCUACC | 135 | 106 | 114 | 112 | 266 |
| GGUAGCAUGGCGGCCGCCACUAUUACUGGAUCGGAAACGAUCCAGUAUUUAUGAGUGAUGUUCAUUAGGACCGGGCCAUGCUACC | 342 | 301 | 304 | 305 | 208 |
| GGUAGCAUGGCGGCCGCCACUUUAUACUCGGUCGUUGGCGUCGUAAGUGAUGUUUACAUUCGCAAAAGGACCGGGCCAUGCUACC | 97.8 | 56.6 | 81.2 | 123 | 133 |
| GGUAUCUAUACAGAUACCAGUCGUACGGCUGCAUUACAGGUUAGUGAUGUUAACCUGUACGACCCUUGGCAGCUGUAUAGUAGUA [#14 K4 Theophylline B Exclusion] | 115 | 94 | 115 | 197 | 104 |
| GGUCCACGCCAUGCCAGUGAUGUUGGUAAGCGAGGACCGGUACGGCCGCCACUCGUUCAAUACCGUAUCGCCCAUAACCUGGAGA [Oneseror] | 113 | 89.1 | 104 | 96.5 | 118 |
| GGUGAUGAGCACGAUACCAGCCUCGGAGCCAGUGAUGUUGGCCCAGUUUAGAAUAAGACAGGCCCUUGGCAGCGUGACGAUGGCU [Inorusre] | 885 | 980 | 1020 | 687 | 981 |
| GUAGCACUUGACAGUGAUGUUGUCAAGGGCAAGGAUAUCACCUCAGUGAGAAGGUGUCCUUGAUAACUGCUACGGGAAUAUCCCA [Omei KL FMN A Exc D v7] | 603 | 136 | 152 | 156 | 168 |
| GUAGGAUGAGGAGGAGGAUGAAUUACUGAAGGAGCGCAAAGAAAUGCAGGUAGGUCGCGGUAAAGAAGUAUAGUGAUGUUAUAUC [#08 K4 Arginine A Same State] | 588 | 416 | 463 | 700 | 598 |
| GUAUCGCUAGGAGGAUAUUUCAAUUUGACUCUUUGAGUUAUUACGGAGUGAUGUUCCGAUUUACGGAAAGAAGGCCUAGUGAUAC [FMN B 12] | 140 | 170 | 202 | 172 | 179 |

| Sequence | apparent KD of K4 kissing-loop reporter (input ligand: FMN 200 uM) [nM] | apparent KD of K4 kissing-loop reporter (input ligand: arginine 13.2 mM) [nM] | apparent KD of K4 kissing-loop reporter (input ligand: none) [nM] | apparent KD of K4 kissing-loop reporter [1] [nM] | apparent KD of K4 kissing-loop reporter [2] [nM] |
| --- | --- | --- | --- | --- | --- |
| GUCCCGAGUGAUGUUCGGGUCGUUCGGGAAGGAGCGCCCGCAAGGGCAGGUAGGUCGCCCGGAUCUCUCAGGUAACUGAGAGACC [#2 Same State - Arginine A Attempt #28 (HarryS)] | 553 | 319 | 431 | 408 | 416 |
| GUCUCGAGUGAUGUUCGGGUCGAUUGGGAAGGAGCGCCCGGAAGGGCAGGUAGGUCGCCCGGGCCGCGCGGGAAACCGCGCGUCC [#2 Same State - Arginine A Attempt #8 (HarryS)] | 208 | 110 | 194 | 140 | 154 |
| GUCUGCUGUAUCGAUACCAGAAGUGGGCAGUGAUGUUGUUCGGGUACAUCGCGUCUCGAGUUCCCUUGGCAGCGAUUGUACGAAU [theeternabot_exclusion_KL_Theo_B_12] | 533 | 571 | 694 | 835 | 524 |
| GUCUGUGUACUAGGAUAUGGUUGCAGGCAGUCAGGUCGCCUUUUCGGCGGCCAGUGAUGUUGGUGGCCAGAAGGAGUACGUGAUG [Raorin] | 776 | 659 | 731 | 720 | 699 |
| GUGAUAUCGCAAGGAUAUCCAAUUUCUGCGGAUAAGUGAUGUUUGGCGCCGCCUCAGUUAUGGCAAGGAGAAGGUGCGGCCUAGC [theeternabot_sameState_KL_FMN_B_28] | 473 | 286 | 428 | 366 | 383 |
| GUGCGGUGGAGGCUACCGCUACUCUGAGAAGGAGCGCAGAUGACUGCAGGUAGGUCGCUUAGAGCUUGCAGUGAUGUUGCAAGUU [Teorzaqu] | 166 | 157 | 188 | 132 | 140 |
| GUGGUACAGGCGGCCGCCACUAGUGAUGUUAGUGAUAGAAGAUAUAGUAAAUAUCGGCAUUUAGAUAGGACCGGGCCUGGUGGUG [xxfxcmullin] | 353 | 245 | 305 | 309 | 267 |
| GUGGUUUACGUAGGAUAUCGAUGAUGAGUAAAUGGAGUGAUGUUCCGAGAUUGAAUAUGAGAUGAGCGAGAAGGGCGGUUUAUGC [FMN B Same State; Euporia Solution 2] | 32.8 | 36.9 | 31.4 | 37.3 | 29.5 |
| GUUAAAUAAAUGGGCAUAGUGAUGUUGUGUCGAGGACCGGUACGGCCGCCACUCGAGCUAGCAUGCCGGUCAUUAUGGGUAGUUU [theeternabot_exclusion_KL_Trp_A_46] | 112 | 118 | 142 | 132 | 219 |
| GUUACGCAUGGAAGGAGCGCAGGCUCAACAAAUAGCUCAGUGAUGUUGAGCAUAUUAAUUCUGCAGGUAGGUCGCCAUGUGUAAC [Ex Arginine B K4 25] | 531 | 491 | 551 | 536 | 508 |
| GUUACGCAUGGAAGGAGCGCGAAUUUAAUUAGUGAGUGAUGUUCACAUAAAAUGUAUAAUACGCAGGUAGGUCGCCAUGUGUAAC [whbob_Ex_Arginine_B_2th163] | 81.9 | 84 | 77.2 | 85.7 | 81.3 |
| GUUGAUCAUGGAAGGAGCGCCCAUUGUCGACACGAGUGAUGUUCGUGUCGUUAAUUAUGAGGGCAGGUAGGUCGCCGUGUGCUUU [Soqugebi] | 144 | 103 | 130 | 115 | 128 |
| UAAAUAAAAUCCUAGUGAUGUUAGGAUAUGUAGGAUAUCGGGAUACCGAGAAGGACAGAAGGAGGAGUGAUGUUCCUCAAUAAAU [FmnAX 30 #DoubleAptamer #DoubleK4 #OpenEnded] | 72 | 72.1 | 59.3 | 74.5 | 59.5 |
| UAAGACAUGAAAGGAUAUCCGAUAUGGAGCCUUUAGUGAUGUUAGGAGCUAGCCGUAGACAAGAUCGGAGAAGGUUCAACCCACA [theeternabot_sameState_KL_FMN_B_13] | 787 | 506 | 646 | 705 | 640 |
| UAAUAUCCGUCGGCCGCCACUCACUAGUGAUGUUAGAGGAGUGAUGUUCCACGAGUGAUGUUCGAGAGGACCGGGACGGACGAUG [7th] | 75.1 | 60 | 65.3 | 56.6 | 54.9 |
| UAAUCUAACGAGAGUGAUGUUCUCGUCACAGAGGAUAUACGAUUUAGUAGAAGGCUGUUGGAUUCGCUUAAUGAUGACUAGAUUA [FMN A SS t1] | 242 | 196 | 223 | 232 | 205 |
| UACUAUAUUCUGUCGUUUUUAUUAGUUUGUCAGGAUAUCGUUUAUUCGAGAAGGGACACUAUCUAGUGAUGUUAGAUAUUUCUUU [JR_Nu3_ExcFMNA_Sub030] | 77.9 | 102 | 92.7 | 93.2 | 72.9 |
| UAGAAGAGAAGCGAUACCAGCGAAUGAAGAAGAUGAUGAAGCCAGUGAUGUUGGAAAGAACGCCCUUGGCAGCGCAAGAGAAGAU | 119 | 163 | 107 | 175 | 83.2 |
| UAGAUAAUGUAAGAUUAUGAUAAUUGGGAAGGAGCGCGGAAAUUCGCAGGUAGGUCGCCCUAUAAAGUAGUACGAGUGAUGUUCG [6.)] | 217 | 205 | 281 | 305 | 261 |
| UAGGGCAUCGCAGGAUAUCCUGCUUAACGUUGGAUUCCAGUGAUGUUGGAAAGUCGGCCUAGGGUAGGAGAAGGGCGAACUUGAA [Maxean] | 172 | 157 | 194 | 195 | 98.1 |
| UAUACGAAGCAGUGAUGUUGCUUAUGAGAAGGAGCGCACGAAAGUGCAGGUAGGUCGCUCAGCCAUGUGGACGAAAACGUCCACA [whbob_SS_Arginine_A_sa110] | 108 | 130 | 109 | 137 | 93 |
